This data set concerns the target T1, simplified alpha-carboxysome shell of CsoS1A and CsoS4A-SII.
T1 chain 1: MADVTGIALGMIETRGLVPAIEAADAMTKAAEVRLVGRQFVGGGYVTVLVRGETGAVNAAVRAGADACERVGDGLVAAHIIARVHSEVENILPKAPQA
T1 chain 2: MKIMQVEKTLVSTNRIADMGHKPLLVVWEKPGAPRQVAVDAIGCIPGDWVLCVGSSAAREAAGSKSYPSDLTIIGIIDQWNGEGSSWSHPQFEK

B1: His6-APEX2-S2CP(30) (protein)
chain: HHHHHHMGSSHHHHHHSSGMGKSYPTVSADYQDAVEKAKKKLRGFIAEKRCAPLMLRLAFHSAGTFDKGTKTGGPFGTIKHPAELAHSANNGLDIAVRLLEPLKAEFPILSYADFYQLAGVVAVEVTGGPKVPFHPGREDKPEPPPEGRLPDPTKGSDHLRDVFGKAMGLTDQDIVALSGGHTIGAAHKERSGFEGPWTSNPLIFDNSYFTELLSGEKEGLLQLPSDKALLSDPVFRPLVDKYAADEDAFFADYAEAHQKLSELGFADAGSSKPEKPGSKITGSSGNDTQGSLITYSGGARG
B1 showed an Average enzyme copy number per shell (T = 3) (copies per shell) of 11 and an Average enzyme copy number per shell (T = 4) (copies per shell) of 14.6.

The record behind these values is patent publication US20230302124.
